# Paper PMC3885427
# Molecular target: SOX6, full-length, yeast two-hybrid fusion (UniProt P35712)
# Test: yeast two-hybrid (β-galactosidase liquid assay)
# Conditions: S. cerevisiae Y187; SOX6 in pGBT9 (BD), SHOX2 mutant in pACT2 (AD); CRPG as substrate; parent: est. 100; read off a plot
# Sequence of SOX6, full-length, yeast two-hybrid fusion (P35712 whole entry, the tested form may be a part): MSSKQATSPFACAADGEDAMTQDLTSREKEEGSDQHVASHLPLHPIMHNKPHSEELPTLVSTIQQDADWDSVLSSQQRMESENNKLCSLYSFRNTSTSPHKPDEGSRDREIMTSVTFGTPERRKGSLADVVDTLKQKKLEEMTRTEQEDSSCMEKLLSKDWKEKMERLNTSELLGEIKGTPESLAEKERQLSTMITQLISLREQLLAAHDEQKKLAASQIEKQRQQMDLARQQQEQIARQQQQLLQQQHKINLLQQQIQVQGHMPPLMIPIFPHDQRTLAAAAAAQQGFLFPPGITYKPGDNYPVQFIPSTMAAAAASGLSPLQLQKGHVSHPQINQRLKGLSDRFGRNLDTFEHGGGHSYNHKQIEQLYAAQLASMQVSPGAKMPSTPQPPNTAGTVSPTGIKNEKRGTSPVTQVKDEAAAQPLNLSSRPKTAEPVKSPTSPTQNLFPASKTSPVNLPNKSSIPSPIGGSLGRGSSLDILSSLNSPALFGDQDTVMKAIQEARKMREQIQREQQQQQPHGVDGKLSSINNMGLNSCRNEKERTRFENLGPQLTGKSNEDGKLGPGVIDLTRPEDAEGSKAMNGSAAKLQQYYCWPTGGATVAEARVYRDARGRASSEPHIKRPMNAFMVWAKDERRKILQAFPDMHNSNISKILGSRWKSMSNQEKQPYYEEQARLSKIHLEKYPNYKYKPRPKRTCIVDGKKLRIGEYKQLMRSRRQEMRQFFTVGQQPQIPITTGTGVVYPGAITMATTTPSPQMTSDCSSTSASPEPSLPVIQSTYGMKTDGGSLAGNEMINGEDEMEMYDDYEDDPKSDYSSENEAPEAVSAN
# Sequence of SHOX2a (called SHOX2 in the paper), full-length, yeast two-hybrid fusion, O60902-1 R319P (O60902 whole entry R319P, the tested form may be a part): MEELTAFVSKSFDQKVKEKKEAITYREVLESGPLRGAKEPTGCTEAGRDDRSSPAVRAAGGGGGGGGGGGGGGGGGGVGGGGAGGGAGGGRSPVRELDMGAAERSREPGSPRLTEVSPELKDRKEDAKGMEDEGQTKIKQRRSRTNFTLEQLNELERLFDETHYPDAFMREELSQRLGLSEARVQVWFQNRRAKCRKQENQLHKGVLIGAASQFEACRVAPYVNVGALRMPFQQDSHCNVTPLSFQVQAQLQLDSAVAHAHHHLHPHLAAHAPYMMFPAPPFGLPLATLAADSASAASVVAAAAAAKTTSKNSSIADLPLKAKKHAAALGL
# Sequence of SHOX2a (called SHOX2 in the paper), full-length, yeast two-hybrid fusion, O60902-1 K139E (O60902 whole entry K139E, the tested form may be a part): as the sequence (O60902 whole entry R319P, the tested form may be a part) above, with K139E, P319R counted along it
# Sequence of SHOX2a (called SHOX2 in the paper), full-length, yeast two-hybrid fusion, O60902-1 R196C (O60902 whole entry R196C, the tested form may be a part): as the sequence (O60902 whole entry R319P, the tested form may be a part) above, with R196C, P319R counted along it
# Sequence of SHOX2a (called SHOX2 in the paper), full-length, yeast two-hybrid fusion, O60902-1 A269D (O60902 whole entry A269D, the tested form may be a part): as the sequence (O60902 whole entry R319P, the tested form may be a part) above, with A269D, P319R counted along it
# Sequence of SHOX2a (called SHOX2 in the paper), full-length, yeast two-hybrid fusion, O60902-1 L155V (O60902 whole entry L155V, the tested form may be a part): as the sequence (O60902 whole entry R319P, the tested form may be a part) above, with L155V, P319R counted along it
# Sequence of SHOX2a (called SHOX2 in the paper), full-length, yeast two-hybrid fusion, O60902-1 R218Q (O60902 whole entry R218Q, the tested form may be a part): as the sequence (O60902 whole entry R319P, the tested form may be a part) above, with R218Q, P319R counted along it
# Sequence of SHOX2a (called SHOX2 in the paper), full-length, yeast two-hybrid fusion, O60902-1 A193P (O60902 whole entry A193P, the tested form may be a part): as the sequence (O60902 whole entry R319P, the tested form may be a part) above, with A193P, P319R counted along it
row,Substance,percent of parent (% Interaction with SOX6)
1,"SHOX2a (called SHOX2 in the paper), full-length, yeast two-hybrid fusion, O60902-1 K139E",44
2,"SHOX2a (called SHOX2 in the paper), full-length, yeast two-hybrid fusion, O60902-1 L155V",10
3,"SHOX2a (called SHOX2 in the paper), full-length, yeast two-hybrid fusion, O60902-1 R218Q",89

# Now from value to substance:
row,percent of parent (% Interaction with SOX6),Substance
1,8,"SHOX2a (called SHOX2 in the paper), full-length, yeast two-hybrid fusion, O60902-1 A193P"
2,87,"SHOX2a (called SHOX2 in the paper), full-length, yeast two-hybrid fusion, O60902-1 A269D"
3,29,"SHOX2a (called SHOX2 in the paper), full-length, yeast two-hybrid fusion, O60902-1 R196C"
4,80,"SHOX2a (called SHOX2 in the paper), full-length, yeast two-hybrid fusion, O60902-1 R319P"
